Laboratory results reported in the nanobody polyreactivity screen of Harvey et al. (2022).

Test: yeast display, Sf9 membrane polyspecificity reagent, FACS + sequencing; frameworks hold sequencing errors
Summary of the method: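 Sorting gates, low and high (top ~1%), were placed on anti-HA fluorescence to track expression and on streptavidin fluorescence to track reagent binding. A clone's polyreactivity label is taken from the gate it came out of. The reagent was 10% biotinylated, detergent-solubilized Sf9 membrane, applied for 1 hour at 4 °C to galactose-induced yeast display cells.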

For “QVQLVESGGGLVQAGGSLRLSCAASGRIFPYNAMGWYRQAPGKERELVASITGSGGSTYYADSVKGRFTISRDKAKKTVYLQMNSLKPEDTAVYYCAVQGGYFYTWDGDYWGQGTQVTVSS”, the “polyreactivity (PSR sort gate)” value was “low polyreactivity”.
In the case of “QVQLVESGGGLVQAGGSLRLSCAASGRIFGGNAMGWYRPAPGKERELVGGISRRGGSTYYADSVKGRFTISRDNAKNTVYLQMYSLKPEDTAVYYCNAYYRYSVFAEKYDYWGQGTQVTVSS”, the “polyreactivity (PSR sort gate)” value is reported as “high polyreactivity”.
In the case of “QVQLVESGGGLVQAGGSLRLSCAASGRIFEFNAMGRYIQAPGKERELVARISYSGGSTYYADSLKGRFTISRDNAKNTVYLQMNSLKPEDTAVYYCAAKPSRYFYNAWGYRQVYQYDYWGQGTQVTVSS”, the “polyreactivity (PSR sort gate)” value is reported as “high polyreactivity”.
In the case of “QVQLVESGGGLVQAGGSLRLSCAASGFTFRRYTMGWYRQARGKERELVAGITTSGGTYYADSVKGRFTISRDNAKNTVYLQMNSLKPEDTAVYYCAARIYYLYGMDYWGQGTQVTVSS”, the “polyreactivity (PSR sort gate)” value is reported as “low polyreactivity”.
With “QVQLVESGGGLVQAGGSLRLSCAASGSTFFIYAMGWYRQAPGKERELVAAISKSGGTTYYADSVKGRFTISRDNAKNTVYLQMNSLKPEDTAVYYCAAYYTKGVARRQFYYWGQGTQVTVSS” the “polyreactivity (PSR sort gate)” value was “high polyreactivity”.
For “QVQLVESGGGLVQAGGSLRLSCAASGSIFYRYAMGWYRQAPGKERELVAAISSNGVSTYYADSVKGRFTISRDNAKNTVYLQMNSLKPEDTAVYYCARDVYASPRLYTSRYNYWGQGTQVTVSS”, the “polyreactivity (PSR sort gate)” value was “low polyreactivity”.
In the case of “QVQLVESGGGLVQAGGSLRLSCAASGFTFYPYARGWYRQAPGKERELVAAISNGDSTHYADSVKGRFTISRDNAKNTVYLQMNSLKPQDTAVYYCNAYTRYPFYFVTSKYDYWGQGNQVTVSS”, the “polyreactivity (PSR sort gate)” value is reported as “low polyreactivity”.
For “KVQLVESGGGLVQAGGSLRLSCPASGFTFKSYTMAWSSQAPGKERELVAAISRRDGSTYYADSVKGRFPISRDNAKNTVYFQMNSLKPEDTAVYYCNAYTYGSEFDYWGQGTQVTVST”, the “polyreactivity (PSR sort gate)” value was “high polyreactivity”.
In the case of “QVQLVESGGGLVQAGGSLRLSCAASGGIFIRYAMGSYRQAPGKERELVAAITQSGAGTNYADSVKGRFTISRDNAKNTVYLQMNSLKPEDTAVYYCAATGLPGYYAYDYWGQGTQVTVSS”, the “polyreactivity (PSR sort gate)” value is reported as “low polyreactivity”.
In the case of “QVQLVESGGGLVQAGGSLRLSCAASGRTFLIYAMGWYRQAPRKEREFVAAIRGRGGSTYYADSVKGRFTISRDNAKNTVYLQMNSLKPEDTAVYYCAATFPGRSFRIRGYGYDYWGQGTQVTVSS”, the “polyreactivity (PSR sort gate)” value is reported as “high polyreactivity”.
In the case of “QVQLVESGGGLVLAGGSLLLSCAAAGSTFSQNAMGWYRQAPGKERELVAAITSGGITYYADSVKGRFTISRDNAKNSVYLQMNSLKPEDTAVYYCNADPIVSPYRLWTVTYYYWGQGTQVTVSS”, the “polyreactivity (PSR sort gate)” value is reported as “low polyreactivity”.
For “QVQLVESGGGLVQAGGSLRLSCAASGRTFPVYAMGWYRQAPGKERELVATIRRRDGSTYADSVKGRFTISRDNAKNTVYLQMNSLKPEDTAVYYCNAAYRQATPWYYAWYDYWGQVTQVTVSS”, the “polyreactivity (PSR sort gate)” value was “high polyreactivity”.
In the case of “QVQLVESGGGLVQAGGSLRLSCAASGFIFWYNAMGWYRQAPGKERELVAAITTAGSTNYADSVKGRFTISRDNAKNTVYLQMNSLKPEDTAVYYCAAVSSYWGQGTQVTVSS”, the “polyreactivity (PSR sort gate)” value is reported as “low polyreactivity”.
In the case of “QVQLVESGGGLVQAGGSLRLICAASGSIFTHNTMGWYRQAPGKERELVASIDSGASTNYADSVKGRFTISRDNAKNTVYLQMNSLKPEDTAVYYCAADDAKFRYRDDYWGQGTQVTVSS”, the “polyreactivity (PSR sort gate)” value is reported as “low polyreactivity”.
For “QVQLVESGGGLVQAGGSLRISCAASGFILYYYAMGWYRQAPGKERELVAAISRNGGRTYYAVSVKGRFTISRDNAKNTVYLQMNSLKPEDTAVYYCNKGVSRTLSSAYDYWGQVTQVTVSS”, the “polyreactivity (PSR sort gate)” value was “high polyreactivity”.
For “QVQLVESGGGLVQAGGSLRLSCAASGSILPTNAMGWYRQAPGKERELGASITRSGGSTYYADSVKGRFTISRDNAKNTVYLQMNSLKPEDTAVYYCNARGFTRYTVGRNYWGQGTQVTVSS”, the “polyreactivity (PSR sort gate)” value was “high polyreactivity”.
In the case of “QVQLVESGGGLVQAGGSLRLSCAASGFIFAKYVMGWYRQAPGKERELVAAISRSGGSTYYADSVKGRFTISRDNAKNTVYLQMNSLKPDDTAVYYFAADQTTTGGMDFWGQGTQVTVSS”, the “polyreactivity (PSR sort gate)” value is reported as “high polyreactivity”.
With “QVQLVESGGGLVQAGGSLRLSCAASGSTFGGYTMGWYRQAPGKERELVAAITSGGGRTYYADSVKGRFTISRDNSKNTVYLQMNSLKPEDTAVYYCATGYKGLYWKYDYWGQGTLVTVSS” the “polyreactivity (PSR sort gate)” value was “high polyreactivity”.
For “QVQLVESGGGLVQAGGSLRLSCAASGRTFTYYSMGWYRQAPGKESELVARISIRGTNTYYADSLKGRFTISRDNAKNTVYLQMTSLKPEDTAVYYCAKYYYTSIVGYDSWGQGTQVTVSS”, the “polyreactivity (PSR sort gate)” value was “low polyreactivity”.
For “QVQLVESGGGLVQAGGSNRLSCAASGLTSFRYTMGWYRQAPGKDRELVAGISGSRGRTYYADSVKGRFTISRDNAKNTVYLQMNCMKAVDTAVYDCAAGWYTSHAKGKGGYWGQGTQVTVSS”, the “polyreactivity (PSR sort gate)” value was “high polyreactivity”.
In the case of “QVQLVESGGGLVQAGGSLRLICAAYGITIGVYAMGWYRQAPVKERELVAAISSSGDTTYYADSVKGRFTISRDNAKNTVYLQKNSLKPEDTAVYYSAAYSHHQFSRSEYYYWGQGTQVTVSS”, the “polyreactivity (PSR sort gate)” value is reported as “low polyreactivity”.
In the case of “QVQLVESGGGLVQAGGSLRFSCAASGGTFYVYAMGGYRQATGKERELVAAISTSGGSTYYADSVKGRFTISRDNAKNTVYLQMNSLKPEDTAVYYCAARRVSFSGHPRYGYWGQGTQVTVSS”, the “polyreactivity (PSR sort gate)” value is reported as “high polyreactivity”.
With “QVQLVESGGGLVQAGGSLRLSCAASGRIFGINAMGWYRQAPGKERELVASIDGGGSKNYADSVKGRFTISRDNAKNTVYLQMNSLKPEDTAVYYCAKERSEYRSRHQAYRYDYWGQGTQVTVSS” the “polyreactivity (PSR sort gate)” value was “low polyreactivity”.
For “QVQLVESGGGLVQAGGSLRLSCAASGRTFKYYALGWYRQAPGKERELVAAISNGGRTNYADSVKGRFTISRDNAKNTVYLQMNSLKPEDTAFYYCAKRTFYFSDYDYWGQGTQVTVSS”, the “polyreactivity (PSR sort gate)” value was “high polyreactivity”.
With “QVQIVESGGGLVQAGGSLRLSCAASGIIFYNYAMGWYREAPGKERELVAAITGTGSRTYYADSVKGRFTISRDNAKNTVYLQMNSLNPEDTAVYYCAVNTRRYWYGYWGQGTQVTVSS” the “polyreactivity (PSR sort gate)” value was “high polyreactivity”.
For “QVQHVESGGGLVQAGGSLRLSCAASGFTFRYNAMGWYRQAPGKKGSWVAAISRTGGSTYYADSVKGRFTISRDNAKNTVYLQMNSLKPEDTAVYYCARAPEGTGGKYGYWGQGTQVTVSS”, the “polyreactivity (PSR sort gate)” value was “high polyreactivity”.
In the case of “QVQLVESGGRLVQAGRSLRLSCAASGRTLKQYVMGWYRQAPGKERELVAAISRRGSSTYYADSVKGRFTISRDNAKNTVYLQMYSLKPEDTAVYYCAAPVYTTRHITAAYEEYGYWGQGTQVNVSS”, the “polyreactivity (PSR sort gate)” value is reported as “high polyreactivity”.
In the case of “QVQLVESGGGLVQAGGSLRLSCAASGLIFPRYGMGWYRQAPGKERELVAAISWSGGSTYYADSVKGRFTISRDNAKNTVYLQMNSLKPEDTAVYYCAVLSNRGVYGSDYWGQGTQVTVSS”, the “polyreactivity (PSR sort gate)” value is reported as “high polyreactivity”.
In the case of “QVHLVESGGGLVQAGGSLRLSCAPSGFIFDYYTMGWYRQAPGKESELVAAITWSGGRTNYADSVKGRFTISRDNAKYTVYLQMNSLKPEDTAVYYCNARRRARGAPYYLYGYSGQGTQVTVSS”, the “polyreactivity (PSR sort gate)” value is reported as “low polyreactivity”.
With “QVQLVESGGGLVQAGGSLRLSCAASGLILYYYDMGWYRQAPGKERELVAAISWNGDDTYYADSVKGRFTISRDNAKNTVYLQMNSLKPEDTAVYYCAAEGPPQTDDYWGQATQVTVSS” the “polyreactivity (PSR sort gate)” value was “high polyreactivity”.
With “QVQLVESGGGLVQAGGSLRLSCAASGSTFSEYVMGWYRQAPGKQRELVAAIRSNGGSTYYADSVKGRFTISRDNAKNTVYLQMNSLKPEDTAVYYCNRVYSRRTYNSPLYDYWGQGTQVTVSS” the “polyreactivity (PSR sort gate)” value was “high polyreactivity”.
In the case of “QVQLVESGGGLVQAGGSLRLSCAASGSIFIPYAMGWYRQAPGKERDLVAAIRYSGASTYYADSVKGRFTISRDNAKNTVFLQMNSLKPEDTAVYYCAARVVDQEVGRPYYYWGQGTQVTVSS”, the “polyreactivity (PSR sort gate)” value is reported as “high polyreactivity”.
In the case of “QVQLVESGGGLVQAGGSLRLSCAASGSIFYTNAMGWYRQAPGKERELVAAITWSGGRTYYADSVKGRFTISRDIAKNTVYLQMNSLKPEDTAVYYCNREGWHYGPYGYWGQGTQVTVSS”, the “polyreactivity (PSR sort gate)” value is reported as “low polyreactivity”.
In the case of “QVQLVESGGGLVQAGGSLRLSCAASGSTFFVNAMGWYRQAPGKERELVAAISYSGGSTYYADSVKGRFTSSRDNAKNTVYLQMNSLKPEDTAVYYCAKDGGPAQDIGMDYCGQGTQVTVSS”, the “polyreactivity (PSR sort gate)” value is reported as “low polyreactivity”.
With “QVQLVESGGGLVQAGGSLRLSCAASGFIFYFYAMGWYRQAPGKERELVAAISSGGSTNYADSVKGRFTISRDNAQNTVYIQMNSQKPEDTAVYYCNKSGYSKYFLNDYTYWGQGTQVTVSS” the “polyreactivity (PSR sort gate)” value was “low polyreactivity”.
For “QVQLVESGGGLVQAVVSLRLSCAASGRIFAYNAMGWYIQATGKERELVAAISSGGNTYYADSVKGRFTISRDNAKNTVYLQMNSLKPEDTAVYYCNAGVGWHRYYSNYDYWGLGTQVTVSS”, the “polyreactivity (PSR sort gate)” value was “low polyreactivity”.
In the case of “QVQLVESGGGLVQAGGSLRLSCAASGRTFVYNAMGWYRQAPGKERELVAAITTNGGSTYYADSVKGRFTISRDNSKNTVYLQMNSLKPEDTAVYYCAADYSLPWSWLYEYWGQGTQVTVSS”, the “polyreactivity (PSR sort gate)” value is reported as “low polyreactivity”.
In the case of “QFQLVESGGGLVQAGVVSLKLCCLRKHFIYYAMAWSRQAPWKDTELVAGINSGGSTKYADSVKRRFTISRDNAKNSVYLQMNSLKPEDTAVYYCNADSYSPVIQEYDYWGQGTQVTVSS”, the “polyreactivity (PSR sort gate)” value is reported as “low polyreactivity”.
With “QVQLVESGGGLVQAGGSLRLSCAASGSIFQRYAMGWYRQAPGKEREFVAAISGRGGSTYYADSVKGRFTISRDNAKNTVYLQMNSLKPEDTAVYYCAADSSRFYGRPRYYYWGQGTQVTVSS” the “polyreactivity (PSR sort gate)” value was “high polyreactivity”.
With “QVQLEESGGGLVQAGGSLRLSCAASGFTFRYYAMGWYRQAPGKERELVASISSSGGSTNYADSVKGRFTISRDNAKNTVYLQMNSLKPEDTAVYYCAVPPYTWLYDYWGQGTQVTVSS” the “polyreactivity (PSR sort gate)” value was “high polyreactivity”.
In the case of “QVQLVESGGGLVQAGGSLRLSCPASGSIFYTNAMGWYRQAPVKERELVAAISRGGSTKYADSVKGRFTISRDNAKNSVYLQMNSLKPEDTAVYYCAARGTASRYLYIPYYYWGQGTQVTVSS”, the “polyreactivity (PSR sort gate)” value is reported as “high polyreactivity”.
For “QVQLVESGGGLVQAGGSLRLSCAASGSNFYFYAMGWYRQAPGKERELVAAISFTDTSTYYADSVKGRFTISRDNAKNTVYLQMNSLKPEDTAVYYCAADFTQYYYWTRYEYWGQGTQVTVSS”, the “polyreactivity (PSR sort gate)” value was “high polyreactivity”.
With “QVQLVESGGGLVQAGGSLRLSCAASGSIFSRNAMGWYRQARGKERELVAAISWRGGSTYYADSVKGRFTISRDNAKNTGYLQMNSLKPEDTAVYYCAAVYQFIKWGDRYEYWGQGTQVTVSS” the “polyreactivity (PSR sort gate)” value was “high polyreactivity”.
